Measurements published in article PMC4820727.

Tests used:
Test in all cases: flow cytometry on cells; Adh adhesion to 293T cells displaying the candidate protein from pDisplay; adhesion rate compared with the control group
[1] = biological target: RAB14 displayed on the surface of 293T cells (pDisplay) (pig (protein identified from porcine alveolar macrophages; source of the cDNA not stated)) (UniProt Q52NJ6)
[2] = biological target: OR5M11 displayed on the surface of 293T cells (pDisplay) (pig (protein identified from porcine alveolar macrophages; source of the cDNA not stated))
[3] = biological target: CARD displayed on the surface of 293T cells (pDisplay) (pig (protein identified from porcine alveolar macrophages; source of the cDNA not stated))
[4] = biological target: RAB1B displayed on the surface of 293T cells (pDisplay) (pig (protein identified from porcine alveolar macrophages; source of the cDNA not stated)) (UniProt Q06AU7)
Chain of UniProt Q06AU7 (Q06AU7 whole entry): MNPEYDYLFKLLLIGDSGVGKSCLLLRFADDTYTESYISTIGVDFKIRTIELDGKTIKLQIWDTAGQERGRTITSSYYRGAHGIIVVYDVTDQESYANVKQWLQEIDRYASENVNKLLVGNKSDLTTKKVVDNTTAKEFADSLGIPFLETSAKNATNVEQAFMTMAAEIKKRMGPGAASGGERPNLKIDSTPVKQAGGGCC

Measured: fold increase of the adhesion rate over the control group

Chain of UniProt Q52NJ6 (Q52NJ6 whole entry): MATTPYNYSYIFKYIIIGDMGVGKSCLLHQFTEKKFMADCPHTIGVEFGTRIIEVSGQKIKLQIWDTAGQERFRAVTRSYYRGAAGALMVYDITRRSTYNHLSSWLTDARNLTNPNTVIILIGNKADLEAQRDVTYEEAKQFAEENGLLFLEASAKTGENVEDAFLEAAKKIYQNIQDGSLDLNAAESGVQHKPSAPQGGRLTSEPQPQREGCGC

Adh, the 68-612 aa head domain of the trimeric autotransporter adhesin Apa1 of Actinobacillus pleuropneumoniae (domain or fragment)
> 3 fold: all assays above
